Laboratory results: paper PMC4702122, “Embelin binds to human neuroserpin and impairs its polymerisation” (Scientific Reports, 2016)
Values joined by “and” are separate entries in the source; they are usually repeats but may differ in a detail not shown here. Equal values may be shown once.

Tests used:
[1] = target: T1, 2ctPA (active form of recombinant tPA) (Homo sapiens, UniProt P00750); test: tPA hydrolytic activity assay; format: biochemical; details: direct inhibition stated, data not shown; conditions not given
T1 construct: gene PLAT

[2] = target: Neuroserpin (SERPINI1), wild type, uncleaved (human) (UniProt Q99574); test: SEC; Nat (4 mg/ml) with 1.5 mM (saturated) EMB overnight at 4, 20, 37, 45, 55 °C; Superdex200 10/300 GL, 10 mM Tris HCl, 50 mM KCl, pH 8.0; fractions also by SDS-PAGE
[3] = target: Neuroserpin (SERPINI1), wild type, uncleaved (human) (UniProt Q99574); test: SEC-MALS; Nat incubated with EMB; peaks eluted at 13.7 and 12.5 ml; SEC-HPLC, 200 μL at 4 mg/mL
[4] = target: Neuroserpin (SERPINI1), wild type, uncleaved (human) (UniProt Q99574); test: native MS; nano-ESI-MS of the SEC peak at 12.5 ml of Nat incubated overnight at 20 °C with EMB; 100 mM ammonium acetate pH 8, 10-20 μM protein, declustering potential 300 V

T1 sequence (P00750 36-562): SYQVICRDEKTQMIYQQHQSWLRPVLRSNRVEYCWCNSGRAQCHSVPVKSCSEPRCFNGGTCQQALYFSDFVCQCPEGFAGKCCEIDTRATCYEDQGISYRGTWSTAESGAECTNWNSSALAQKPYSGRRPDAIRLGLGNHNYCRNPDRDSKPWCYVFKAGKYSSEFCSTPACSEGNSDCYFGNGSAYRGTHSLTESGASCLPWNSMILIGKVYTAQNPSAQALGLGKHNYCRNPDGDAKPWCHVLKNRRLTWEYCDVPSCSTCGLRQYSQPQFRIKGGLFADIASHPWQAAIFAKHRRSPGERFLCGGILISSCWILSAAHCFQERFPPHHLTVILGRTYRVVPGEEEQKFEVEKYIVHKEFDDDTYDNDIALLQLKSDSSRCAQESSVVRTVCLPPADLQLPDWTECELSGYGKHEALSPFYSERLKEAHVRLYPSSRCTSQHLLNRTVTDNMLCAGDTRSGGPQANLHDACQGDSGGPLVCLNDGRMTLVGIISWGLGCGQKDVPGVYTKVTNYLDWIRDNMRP

Compound	tPA hydrolytic activity assay [1]	stoichiometry N [2]	stoichiometry N [3]	stoichiometry N [4]
CCCCCCCCCCCC1=C(O)C(=O)C=C(O)C1=O [EMB, embelin]	Due to direct inhibitory effect of EMB on tPA	–	–	–
Neuroserpin (SERPINI1), wild type, uncleaved (from UniProt Q99574 17-410) (natural protein)	–	2 to 8	2	3 and 4 and 2
